Measured values published in patent US8394929B2, “Nogo receptor-mediated blockade of axonal growth” (Yale University, priority 2000, dated 2013).

What was measured:
[1] = system: mNgR deletion mutants; test: AP-hNogo-A (1055-1120) binding to COS-7 cells transfected with other mNgR deletion mutants; parameters: species or system mouse
Text: The NgΔRNT construct encodes residues 58 to 473 of mNgR. The NgRANT construct was made by using the primers ΔLRR-NT5 (5′-[…]-3′) and NgR3X (5′-[…]-3′) to amplify a sequence from the wtNgR-pSecTag2Hygro plasmid. The amplified sequence was ligated into the XhoI/BamHI of pSecTag2.
The NgLRR-construct encodes residues 306 to 473 of mNgR. The NgLRR construct was made by using the primers, MycNgR305 (5′-[…]-3′) and NgR3X (above) to amplify a sequence from the from the wtNgR-pSecTag2Hygro plasmid. The amplified sequence was ligated into the XhoI/BamHI of pSecTag2.
The mNgR LLR deletions and NgRΔLRRCT deletion mutants were generated using ExSite™ PCR-based site-directed mutagenesis kit (Stratagene, La Jolla, Calif.). Generally, the primers described below were used to amplify a sequence from the wtNgR pSecTag2 plasmid. The ends of the amplified products were ligated together. The resulting constructs were transfected into COS-7 cells.
The NgRΔ1-2 construct encodes residues 1 to 56 and residues 106 to 473 of mNgR. The primers used for making the NgRΔ1-2 construct were DEL LRR (5′PO4) (5′-[…]-3′) and DEL LRR2 (5′-[…]-3′). […]
To determine whether mNgR or mNgR deletion mutants bound to hNogo-A (1055-1120), wtNgR or mNgR deletion mutants were transfected into COS-7 cells. […] AP-fusion protein was detected as previously described for AP-Sema3A (Takahashi et al., Nature Neurosci. 1:487-493, 1998).

[2] = system: 3T3 fibroblasts; test: 3T3 fibroblast spreading; format: cell-based, mouse; conditions: substrate-bound / coated surfaces
Procedure: (a) is a schematic diagram which summarizes features of the Nogo proteins utilized in this study. (b) is a photograph of NIH-3T3 fibroblasts cultured on surfaces coated with Amino-Nogo, GST-Nogo-66 or no protein and stained for filamentous actin (scale bar, 40 μm). (c) is a photograph of chick E12 dorsal root ganglions cultured on surfaces coated with Amino-Nogo, GST-Nogo-66 or no protein (substrate-bound) or with 100 nM Nogo protein (soluble) (scale bar, 40 μm). (d) is a photograph of a gel and an immunoblot where purified Amino-Nogo-Myc-His protein was subjected to SDS-PAGE and stained with Commassie Brilliant Blue (CBB) or immunoblotted with anti-Myc antibodies (Myc) (molecular weight markers of 200, 116, 97, 65 & 45 kDa are at left). (e) is a graph displaying experimental data where the percentage of 3T3 fibroblasts with an area greater than 1200 μm^2 (spread) was measured from experiments as in (b) on Nogo-coated surfaces (black) or with soluble 100 nM Nogo preparations (blue) (AM, Amino-Nogo; AM+Myc, Amino-Nogo preincubated with anti-Myc antibody; AM+Myc+Mo, AM+Myc preincubated with anti-mouse IgG antibody; Myc+Mo, anti-Myc antibody plus anti-murine IgG antibody). (f) is a graph displaying experimental data where the percentage of spread COS-7 cells was determined after culture on Nogo-coated surfaces or with soluble 100 nM Nogo preparations. (g) is a graph displaying experimental data where the effects of purified preparations of GST-Nogo-66 or Amino-Nogo on growth cone morphology was assessed in E12 dorsal root ganglion cultures at the indicated concentrations after thirty minutes. […] (h) is a graph displaying experimental data where the neurite outgrowth per cell in […] dorsal root ganglion cultures was quantitated from experiments as in (c) on Nogo-coated surfaces or with soluble 100 nM Nogo preparations. (i) is a graph displaying experimental data where the effects of Nogo preparations on neurite outgrowth in cerebellar granule neurons was measured.
Assays of Nogo-A function have included growth cone collapse, neurite outgrowth, and fibroblast spreading with substrate-bound and soluble protein preparations (Caroni & Schwab, (1988) J. Cell Biol. 106, 1281-1288; GrandPré et al., (2000) Nature 403, 439-444; Chen et al., (2000) Nature 403, 434-439; Prinjha et al., (2000) Nature 403, 483-484). […] Since NI250 preparations and full length Nogo-A are non-permissive for 3T3 spreading, it was necessary to consider whether different domains of Nogo might subserve this in vitro activity. To facilitate a comparison of different Nogo-A domains, the acidic amino terminal 1040 amino acid fragment (Amino-Nogo) was expressed as a Myc-his tagged protein in HEK293T cells (FIG. 1d). The Nogo protein is present in cytosolic fractions. […]

Row | Molecule | binding (in words) [1] | 3T3 fibroblast spreading (in words) [2]
1 | AP-Nogo: fusion protein of His6 tag, placental alkaline phosphatase (AP) and the 66 amino acid active domain of Nogo (protein) HHHHHHIIPVEEENPDFWNREAAEALGAAKKLQPAQTAAKNLIIFLGDGMGVSTVTAARILKGQKKDKLGPEIPLAMDRFPYVALSKTYNVDKHVPDSGATATAYLCGVKGNFQTIGLSAAARFNQCNTTRGNEVISVMNRAKKAGKSVGVVTTTRVQHASPAGTYAHTVNRNWYSDADVPASARQEGCQDIATQLISNMDIDVILGGGRKYMFRMGTPDPEYPDDYSQGGTRLDGKNLVQEWLAKRQGARYVWNRTELMQASLDPSVTHLMGLFEPGDMKYEIHRDSTLDPSLMEMTEAALRLLSRNPRGFFLFVEGGRIDHGHHESRAYRALTETIMFDDAIERAGQLTSEEDTLSLVTADHSHVFSFGGYPLRGSSIFGLAPGKARDRKAYTVLLYGNGPGYVLKDGARPDVTESESGSPEYRQQSAVPLDEETHAGEDVAVFARGPQAHLVHGVQEQTFIAHVMAFAACLEPYTACDLAPPAGTTDAAHPGRIYKGVIQAIQKSDEGHPFRAYLESEVAISEELVQKYSNSALGHVNCTIKELRRLFLVDDLVDSLK | did not | 
2 | GST-Nogo: GST fusion protein of the 66 amino acid lumenal-extracellular fragment of Nogo-A, expressed in E. coli (protein, also: GST fusion protein, GST fusion protein of the 66 amino acid lumenal-extracellular fragment of Nogo-A, expressed in E. coli) RIYKGVIQAIQKSDEGHPFRAYLESEVAISEELVQKYSNSALGHVNCTIKELRRLFLVDDLVDSLK |  | does not inhibit spreading
